Results on one molecule are retold here after patent US20050119456A1 (NEW YORK UNIVERSITY, published 2005).

This assay addresses T1, GST-SMRT (Hu SMRT(1-900) fused to GST, from pGEX-6p-1) (human, UniProt Q9Y618 1-900).
T1 construct: range 1-900; Expressed in bacteria with IPTG and adsorbed onto glutathione sepharose 4B; also called GST-SMRT agarose; immobilized SMRT; not shown: glutathione S-transferase of the pGEX-6p-1 bacterial expression vector
Kind of assay: GST pull-down of 35S-labeled in vitro translated C21 fragment. The source says:
FIGS. 15A and 15B show GST-pull-down of in vitro synthesized C21 by SMRT (1-900). Hu SMRT(1-900) cDNA was amplified by PCR and cloned in-frame into pGEX-6p-1 (GST fusion expression vector for bacterial expression). Expression of the GST fusion protein (FIG. 15A) or control (FIG. 15B) was induced with IPTG and the product adsorbed onto glutathione sepharose 4B. hC21 (full-length ORF or fragments lacking the C-terminal half(δ C), the F-box (δ F), the N terminal 40 amino acid (δ N) or a construct lacking both the N-terminus and the F-box (δN+F) was cloned in-frame into pCDNA3 vector with a Flag tag at the N-terminus. The plasmid, linearized with EcoRI, was purified and used as a template to label the product. For the pull-down experiments, 5 ng of ³⁵S-labeled hC21 protein(s) and 20 ul of GST agarose or GST-SMRT agarose were mixed. All four C21 constructs labeled with equal efficiency and the same quantity of labeled protein were used in each experiment. The denatured proteins were then electrophoresed through a 10% SDS PAGE gel.
Labeled C21 prepared by in vitro translation using 35S methionine can be “pulled-down” by immobilized SMRT. […] A fragment (21[δC]) consisting only of the first 230 amino acids (i.e., lacking all of the WD40 repeats and the carboxyl terminus) was as efficient as the full-length protein in reacting with SMRT.

T1 sequence (Q9Y618 1-900): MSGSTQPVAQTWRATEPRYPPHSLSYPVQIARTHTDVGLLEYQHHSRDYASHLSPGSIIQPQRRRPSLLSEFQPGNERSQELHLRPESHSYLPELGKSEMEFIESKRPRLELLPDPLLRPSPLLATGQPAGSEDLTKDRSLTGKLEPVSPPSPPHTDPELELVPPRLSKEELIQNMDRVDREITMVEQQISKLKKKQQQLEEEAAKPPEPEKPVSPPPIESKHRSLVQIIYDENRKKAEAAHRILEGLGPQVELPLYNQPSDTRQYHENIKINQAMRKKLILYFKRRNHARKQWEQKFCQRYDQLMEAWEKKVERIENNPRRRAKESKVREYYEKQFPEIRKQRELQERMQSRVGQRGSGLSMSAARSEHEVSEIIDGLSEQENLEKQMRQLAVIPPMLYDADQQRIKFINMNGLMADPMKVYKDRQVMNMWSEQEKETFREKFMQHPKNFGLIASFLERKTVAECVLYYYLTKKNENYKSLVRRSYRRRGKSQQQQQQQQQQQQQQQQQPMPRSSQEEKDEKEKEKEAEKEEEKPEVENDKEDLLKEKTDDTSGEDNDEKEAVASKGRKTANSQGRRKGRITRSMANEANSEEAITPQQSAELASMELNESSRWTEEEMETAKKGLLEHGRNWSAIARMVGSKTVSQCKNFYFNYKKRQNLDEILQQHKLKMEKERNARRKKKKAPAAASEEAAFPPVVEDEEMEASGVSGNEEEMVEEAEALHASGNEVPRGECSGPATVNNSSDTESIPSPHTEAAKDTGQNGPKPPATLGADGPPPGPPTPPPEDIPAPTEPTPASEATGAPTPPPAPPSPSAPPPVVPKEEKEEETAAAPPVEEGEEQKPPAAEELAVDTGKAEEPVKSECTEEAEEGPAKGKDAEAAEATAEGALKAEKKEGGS

B1: 21[5N] (other)
chain: GALVPPAALISIIQKGLQYVEAEVSINEDGTLFDGRPIESLSLIDAVMPDVVQTRQQAYRDKLAQQQAAAAAAAAAAASQQGSAKNGENTANGEENGAHTIANNHTDMMEVDGDVEIPPNKAVVLRGHESEVFICAWNPVSDLLASGSGDSTARIWNLSENSTSGSTQLVLRHCIREGGQDVPSNKDVTSLDWNSEGTLLATGSYDGFARIWTKDGNLASTLGQHKGPIFALKWNKKGNFILSAGVDKTTIIWDAHTGEAKQQFPFHSAPALDVDWQSNNTFASCSTDMCIHVCKLGQDRPIKTFQGHTNEVNAIKWDPTGNLLASCSDDMTLKIWSMKQDNCVHDLQQHNKEIYTIKWSPTGPGTNNPNANLMLASASFDSTVRLWDVDRGICIHTLTKHQEPVYSVAFSPDGRYLASGSFDKCVHIWNTQTGALVHSYRGTGGIFEVCWNAAGDKVGASASDGSVCVLDLRK
modifications: 35S-methionine label
notes: also called δ N; hC21 fragment lacking the N terminal 40 amino acid; not shown: Flag tag at the N-terminus
For the molecule B1, the binding result is given as “no binding”.
